Measured values: patent EP4737482A1 (Atheon Bio, Inc., dated 2026)
Substitutions are numbered along the chain they refer to.

T1: human MYCT1 (hMYCT1) (human, UniProt Q8N699 1-235, limits assumed)
T1 construct: also called MYC Target 1
T1 sequence: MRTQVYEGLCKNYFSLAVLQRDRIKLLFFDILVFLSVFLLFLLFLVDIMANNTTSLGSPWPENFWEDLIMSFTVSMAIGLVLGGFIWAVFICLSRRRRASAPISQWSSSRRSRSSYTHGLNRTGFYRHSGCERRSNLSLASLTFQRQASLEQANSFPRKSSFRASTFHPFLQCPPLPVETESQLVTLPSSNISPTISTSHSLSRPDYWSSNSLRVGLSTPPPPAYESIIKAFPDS

B1: 11B6-z0-uIgG1K (antibody, V domains shown)
VH: EVQLVESGGGLVKPGGSLRLSCAASGFTFSDFGIHWVRQAPGKGLEWVSYISSGSRTIHYADTVKGRFTISRDNAKNSLYLQMNSLRAEDTAVYYCARRDWDPEWLAYWGQGTLVTVSS
VL: DIVMTQSPLSLPVTPGEPASISCRSSLSLVHSNGHTYLHWYLQKPGQSPQLLIYKVSNRFSGVPDRFSGSGSGTDFTLKISRVEAEDVGVYYCSQSTHVPFTFGQGTKLEIK
B2: 11B6-z5-uIgG1K (antibody, V domains shown)
VH: B1 VH
VL: B1 VL with I2V
B3: 11B6-z7-uIgG1K (antibody, V domains shown)
VH: B1 VH
VL: B1 VL with S81R
B4: 11B6-z6-uIgG1K (antibody, V domains shown)
VH: B1 VH
VL: B1 VL with Q50K
B5: 11B6-z8-uIgG1K (antibody, V domains shown)
VH: B1 VH
VL: B1 VL with Y92F
B6: 11B6-p1-uIgG1K (antibody, V domains shown)
VH: EVQLVESGGGLVKPGGSLKLSCAASGFTFSDFGIHWVRQAPEKGLEWVGYISSGSRTIHYADTVKGRFTISRDNAKNTLFLQMTNLRSEDTAIYYCARRDWDPEWLAYWGQGTLVTISA
VL: DVVMTQAPLSLPVSLGDQASISCRSSLSLVHSQGHTYLHWYLQKPGQSPKLLIYKVSNRFSGVPDRFSGSGSGTDFTLKIRRVEAEDLGVYFCSQSTHVPFTFGSGTKLEIK
B7: 11B6-z1-uIgG1K (antibody, V domains shown)
VH: B1 VH with S49G
VL: B1 VL
B8: 11B6-z3-uIgG1K (antibody, V domains shown)
VH: B1 VH with Y80F
VL: B1 VL
B9: 11B6-z12-uIgG1K (antibody, V domains shown)
VH: B1 VH with S49G, V93I
VL: B1 VL with I2V, Q50K, S81R, Y92F
B10: 11B6-z11-uIgG1K (antibody, V domains shown)
VH: B1 VH with S49G, V93I
VL: B1 VL with I2V, Y92F
B11: 11B6-z4-uIgG1K (antibody, V domains shown)
VH: B1 VH with V93I
VL: B1 VL
B12: 11B6-z10-uIgG1K (antibody, V domains shown)
VH: B1 VH with S49G
VL: B1 VL with I2V, Y92F
B13: 11B6-z2-uIgG1K (antibody, V domains shown)
VH: B1 VH with S78T
VL: B1 VL
B14: 11B6-z9-uIgG1K (antibody, V domains shown)
VH: B1 VH
VL: B1 VL with I2V, Y92F
B15: 11B6-z14-uIgG1K (antibody, V domains shown)
VH: B6 VH
VL: B1 VL with I2V, Q50K, S81R, Y92F
B16: 11B6-p3-uIgG1K (antibody, V domains shown)
VH: B6 VH
VL: B6 VL with Q33N, G34A
B17: 11B6-z15-uIgG1K (antibody, V domains shown)
VH: B1 VH with S49G, S78T, Y80F, V93I
VL: B6 VL with Q33N
B18: 11B6-p2-uIgG1K (antibody, V domains shown)
VH: B6 VH
VL: B6 VL with Q33S

biological target: T1, human MYCT1 (hMYCT1); assay: SPR koff ranking, single curve, antibody captured via anti-human Fc IgG, 10 nM MYCT1 as analyte, 1:1 binding model

koff [s⁻¹]	Binder
0.0624	B1
0.0521	B2
0.0473	B3
0.0377	B4
0.0324	B5
0.00933	B6
0.0169	B7
0.0659	B8
0.00838	B9
0.0102	B10
0.0476	B11
0.0102	B12
0.056	B13
0.0311	B14
0.0052	B15
0.00547	B16
0.00906	B17
0.00691	B18
